How the values were obtained:
[1] = biological target: GST-lamin A (amino acids 356–665, containing nesprin-1/2 binding domain) (UniProt P02545); assay: reverse GST pull-down with western blot densitometry; details: lysates of U2OS cells transfected with GFP-nesprin-1α2 WT or mutant; three independent experiments, mean ± SEM; parent: est. 1.0; read off a plot
[2] = biological target: GST-emerin (amino acids 1–176, lacking the TM domain) (UniProt P50402); assay: as above; details: lysates of U2OS cells transfected with GFP-nesprin-1α2 WT or mutant; three independent experiments, mean ± SEM; parent: est. 1.0; read off a plot
Myc-SUN2 (full length) = Myc-SUN2 (full length) (UniProt Q9UH99); assay: GST pull-down with western blot densitometry; details: lysate of U2OS cells transfected with Myc-SUN2 (full length); three independent experiments, mean ± SEM; parent: est. 1.0; read off a plot
emerin (endogenous) = emerin (endogenous) (UniProt P50402); assay: GST pull-down with western blot densitometry; details: U2OS cell lysate; three independent experiments, mean ± SEM; parent: est. 1.0; read off a plot
[3] = biological target: lamin A/C (endogenous, U2OS lysate; lamin A and lamin C bands quantified together); assay: GST pull-down with western blot densitometry; details: U2OS cell lysate; three independent experiments, mean ± SEM; parent: est. 1.0; read off a plot

Sequence of UniProt Q9UH99 (Q9UH99 whole entry): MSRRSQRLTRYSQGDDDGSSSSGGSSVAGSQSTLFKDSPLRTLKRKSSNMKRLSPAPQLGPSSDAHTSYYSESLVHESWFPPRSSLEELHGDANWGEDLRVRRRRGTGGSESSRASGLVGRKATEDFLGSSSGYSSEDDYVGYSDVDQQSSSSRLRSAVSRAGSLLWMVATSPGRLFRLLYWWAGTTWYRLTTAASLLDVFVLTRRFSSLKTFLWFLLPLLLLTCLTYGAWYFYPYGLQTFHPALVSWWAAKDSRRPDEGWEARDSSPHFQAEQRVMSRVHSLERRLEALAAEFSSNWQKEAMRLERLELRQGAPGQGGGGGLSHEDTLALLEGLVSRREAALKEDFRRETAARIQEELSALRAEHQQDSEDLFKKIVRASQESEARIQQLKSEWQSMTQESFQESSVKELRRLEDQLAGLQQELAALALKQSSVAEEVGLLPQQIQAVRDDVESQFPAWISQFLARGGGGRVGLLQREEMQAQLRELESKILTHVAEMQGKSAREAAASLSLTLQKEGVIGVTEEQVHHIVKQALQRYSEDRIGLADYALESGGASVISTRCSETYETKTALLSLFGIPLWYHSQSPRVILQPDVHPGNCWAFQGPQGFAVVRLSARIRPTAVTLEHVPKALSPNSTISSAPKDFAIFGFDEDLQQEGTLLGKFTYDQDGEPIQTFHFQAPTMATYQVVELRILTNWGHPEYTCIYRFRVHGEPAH
Sequence of UniProt P02545 (P02545 356-664): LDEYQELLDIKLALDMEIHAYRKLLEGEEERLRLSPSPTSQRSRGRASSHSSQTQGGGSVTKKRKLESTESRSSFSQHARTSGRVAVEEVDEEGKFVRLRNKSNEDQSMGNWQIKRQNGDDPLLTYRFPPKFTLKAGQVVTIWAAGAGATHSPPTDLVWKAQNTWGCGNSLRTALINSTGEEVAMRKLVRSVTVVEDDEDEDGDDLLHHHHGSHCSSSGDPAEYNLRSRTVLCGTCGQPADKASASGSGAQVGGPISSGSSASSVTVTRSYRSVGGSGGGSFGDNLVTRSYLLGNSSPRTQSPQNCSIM

GFP-tagged nesprin-1α2 WT N8406K was tested, and the ratio to parent [1] was 0.31 and the ratio to parent [2] was 1.1.
GFP-tagged nesprin-1α2 WT R8272Q showed a ratio to parent [1] of 0.33 and a ratio to parent [2] of 1.1.
With GFP-tagged nesprin-1α2 WT S8381C the ratio to parent [1] was 0.17 and the ratio to parent [2] was 0.93.
In the case of “GST-tagged WT nesprin-1α2 SR1-6 (lacking KASH domain) N8406K”, the ratio to parent (Myc-SUN2 (full length)) is reported as 0.15, the ratio to parent (emerin (endogenous)) is reported as 1.2 and the ratio to parent [3] is reported as 0.17.
In the case of “GST-tagged WT nesprin-1α2 SR1-6 (lacking KASH domain) R8272Q”, the ratio to parent (Myc-SUN2 (full length)) is reported as 0.25, the ratio to parent (emerin (endogenous)) is reported as 1 and the ratio to parent [3] is reported as 0.18.
For “GST-tagged WT nesprin-1α2 SR1-6 (lacking KASH domain) S8381C”, the ratio to parent (Myc-SUN2 (full length)) was 0.19, the ratio to parent (emerin (endogenous)) was 0.87 and the ratio to parent [3] was 0.12.
